T1: Aggregatibacter actinomycetemcomitans leukotoxin (LtxA) (Aggregatibacter actinomycetemcomitans …, UniProt P16462 1-1055)
T1 sequence: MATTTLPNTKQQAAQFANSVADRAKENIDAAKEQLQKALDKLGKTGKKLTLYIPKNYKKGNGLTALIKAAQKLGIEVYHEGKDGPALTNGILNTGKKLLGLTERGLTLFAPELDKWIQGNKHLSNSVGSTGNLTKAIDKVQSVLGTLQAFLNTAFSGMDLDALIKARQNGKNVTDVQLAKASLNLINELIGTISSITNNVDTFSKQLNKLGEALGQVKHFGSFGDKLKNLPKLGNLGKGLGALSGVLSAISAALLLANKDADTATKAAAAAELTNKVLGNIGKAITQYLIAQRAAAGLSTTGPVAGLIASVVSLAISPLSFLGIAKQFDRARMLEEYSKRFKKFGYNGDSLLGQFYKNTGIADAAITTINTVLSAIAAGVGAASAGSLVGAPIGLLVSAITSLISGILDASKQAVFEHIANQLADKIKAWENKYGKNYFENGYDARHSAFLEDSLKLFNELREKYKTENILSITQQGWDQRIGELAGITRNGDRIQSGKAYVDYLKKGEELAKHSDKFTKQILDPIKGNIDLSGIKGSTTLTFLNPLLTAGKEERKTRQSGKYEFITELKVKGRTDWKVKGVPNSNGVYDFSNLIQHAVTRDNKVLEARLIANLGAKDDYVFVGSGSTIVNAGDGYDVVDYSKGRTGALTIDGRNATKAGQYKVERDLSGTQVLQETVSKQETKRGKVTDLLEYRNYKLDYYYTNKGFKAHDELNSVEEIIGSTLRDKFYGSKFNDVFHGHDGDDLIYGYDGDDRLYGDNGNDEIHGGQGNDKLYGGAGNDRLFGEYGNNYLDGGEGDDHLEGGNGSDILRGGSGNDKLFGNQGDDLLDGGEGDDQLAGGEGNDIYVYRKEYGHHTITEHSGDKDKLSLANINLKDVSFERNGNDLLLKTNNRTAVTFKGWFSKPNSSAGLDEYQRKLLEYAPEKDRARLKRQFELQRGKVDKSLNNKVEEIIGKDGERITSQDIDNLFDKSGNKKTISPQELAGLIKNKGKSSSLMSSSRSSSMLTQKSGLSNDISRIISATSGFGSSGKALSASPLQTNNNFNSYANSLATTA

B1: αL cytoplasmic tail peptide (integrin αL, LFA-1 α subunit) (peptide)
peptide: CKVGFFKRNLKEKMEAGRGVPNGIPAEDSEQLASGQEAGDPGSLKPLHEKDSESGGGKD

Biological target: T1, Aggregatibacter actinomycetemcomitans …
Experiment: SPR

Row | Binder | Ka | Kd | koff | kon
1 | B1 | 6.9e+07 M⁻¹ | 15 nM | 0.00012 s⁻¹ | 8500 M⁻¹ s⁻¹
2 | CGQEAGDPGSLKPLHEKDSESGGGKD [αLC peptide (C-terminal, membrane-distal part of the αL cytoplasmic tail)] | 370000 M⁻¹ | – | – | –
3 | CKLGFFKRQYKDMMSEGGSPGAEPQ [αM cytoplasmic tail peptide (integrin αM)] | 2.5e+06 M⁻¹ | 400 nM | 0.011 s⁻¹ | 28000 M⁻¹ s⁻¹
4 | CKVGFFKRQYKEMMEEANGQIAPENGTQTPSPPSEK [αX cytoplasmic tail peptide (integrin αX)] | 5.7e+06 M⁻¹ | 180 nM | 0.022 s⁻¹ | 130000 M⁻¹ s⁻¹
5 | CKALIHLSDLREYRRFEKEKLKSQWNNDNPLFKSATTTVMNPKFAES [β2 cytoplasmic tail peptide (integrin β2, LFA-1 β subunit)] | 2.4e+08 M⁻¹ | 4.2 nM | 0.0001 s⁻¹ | 24000 M⁻¹ s⁻¹
6 | CKALIHLSDLREYRRFEKEKLKSQ [β2N peptide (N-terminal part of the β2 cytoplasmic tail)] | 9.6e+06 M⁻¹ | 110 nM | 0.00063 s⁻¹ | 6100 M⁻¹ s⁻¹
7 | CKALIHLSDLREYRRFEKEKLKSQWNN [β2N2 peptide (longer N-terminal part of the β2 cytoplasmic tail, with WNN)] | 1.1e+08 M⁻¹ | 9.4 nM | 0.00013 s⁻¹ | 14000 M⁻¹ s⁻¹
8 | CLKSQWNNDNPLFKSATTTVMNPKFAES [β2C peptide (C-terminal part of the β2 cytoplasmic tail)] | 2e+07 M⁻¹ | 51 nM | 0.00031 s⁻¹ | 6100 M⁻¹ s⁻¹
9 | CKLLITIHDRKEFAKFEEERARAKWDTANNPLYKEATSTFTNITYRGT [β3 cytoplasmic tail peptide (integrin β3)] | 4.4e+06 M⁻¹ | 230 nM | 0.0059 s⁻¹ | 26000 M⁻¹ s⁻¹
10 | CKVGFFKRNLKEKMEAGRGVPNGI [αLN peptide (N-terminal, membrane-proximal part of the αL cytoplasmic tail)] | 6.6e+07 M⁻¹ | 16 nM | 0.00013 s⁻¹ | 8400 M⁻¹ s⁻¹

Source: paper PMC6657692 (Cellular microbiology, 2018)
